Laboratory results: patent publication US20240122985A1, “ANTIBODIES, COMBINATIONS COMPRISING ANTIBODIES, BIOMARKERS, USES & METHODS” (KYMAB LIMITED, priority 2016, published 2024)
“And” between values parts separate entries of the source, which are not always exact repeats. Equal entries are not always repeated.

What was measured:
[1] = system: peripheral blood or T-cell donor chimerism; experiment: Donor chimerism in rhesus HSCT recipients (microsatellite markers); type: in vivo, Rhesus macaque; conditions: per animal
Protocol: Peripheral blood or T-cell (CD3^+/CD20−) chimerism was determined using divergent donor- and recipient-specific MHC-linked microsatellite markers, by comparing peak heights of the donor- and recipient-specific amplicons (Penedo M C et al, (2005) “Microsateliite typing of the rhesus macaque MHC region”, Imunogenetics 57:198-209).
Flow cytometrically-sorted T-cells (CD3^+/CD20−) were analysed for donor chimerism based on divergent microsatellite markers. Chimerism analysis was performed at the UC Davis veterinary genetics laboratory as previously described (Larsen et al., 2010; Kean et al., 2007).

Rhesus monkey OX40L = experiment: Surface plasmon resonance, apparent affinity to rhesus OX40L; type: binding, Rhesus (Macaca mulatta); conditions: SPR, 25° C.; CNROR = Cannot resolve off-rate
Protocol: SPR analysis was carried out using the ProteOn™ XPR36 Array System (BioRad). Anti-mouse IgG (GE Healthcare BR-1008-38) was immobilised on a GLM biosensor surface using amine coupling, the surface was then blocked using 1 M ethanolamine. Test antibodies were captured on this surface and recombinant hOX40L (human and rhesus) were used at a single concentration of 256 nM, binding sensorgrams were double referenced using a buffer injection (i.e. 0 nM) to remove baseline drift and injection artefacts. Apparent affinities for the OX40L-antibody interaction were determined using the 1:1 model inherent to the ProteOn XPR36 analysis software. The assay was run using HBS-EP (Teknova) as running buffer and carried out at 25° C.

[2] = system: Cytomegalovirus (CMV), bacterial and fungal infections; experiment: CMV monitoring and infections after transplant; type: in vivo, Rhesus macaque; conditions: 2D10 IgG4PE Rhesus GvHD Study, per animal
Protocol: Cytomegalovirus (CMV) monitoring was performed as previously described (Larsen et al, 2010) and is reported as CMV copies/mL of whole blood. Whole blood samples were collected and CMV viral load was measured twice weekly on days 0 to 30 post-HCT, then at least once weekly on days 31 to 60 post-HCT and then at least once every 2 weeks from day 61 until the experimental endpoint. CMV prophylaxis and treatment was performed according to our standard NHP strategy, as previously described (Zheng et al, 2017). Briefly, CMV prophylaxis was provided to all transplant recipients and included weekly Cidofovir, given at a dose of 5 mg/kg, along with renal protection with 3 doses of Probenecid (167 mg PO/dose) given within the first 24 hours after each cidofovir dose. Recipients who reactivated CMV continued cidofovir and were also treated with parenteral gancyclovir, which was given at 5 mg/kg/dose twice daily. Gancyclovir treatment was continued until CMV levels were undetectable for two weeks and then discontinued.

Rhesus monkey OX40L, sequence (as listed by the source): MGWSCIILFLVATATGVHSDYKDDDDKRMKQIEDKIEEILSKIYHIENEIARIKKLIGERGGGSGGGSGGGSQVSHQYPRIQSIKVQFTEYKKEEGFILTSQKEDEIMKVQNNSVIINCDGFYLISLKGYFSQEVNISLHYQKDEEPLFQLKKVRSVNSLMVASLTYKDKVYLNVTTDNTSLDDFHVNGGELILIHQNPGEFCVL

B1: 2D10 IgG4PE: fully human anti-human OX40L monoclonal antibody, human IgG4-PE; VH Seq ID No:34, VL Seq ID No:48; 2D10-1 to -4 are stable pools (antibody, V domains shown)
VH: EVQLVESGGGLVQPGGSLRLSCAASGFTFSNYAMNWVRQAPGKGLEWVSTISGSGGATRYADSVKGRFTISRDNSRNTVYLQMNSLRVEDTAVFYCTKDRLIMATVRGPYYYGMDVWGQGTTVTVSS
VL: DIQMTQSPSSLSASVGDRVTITCRASQSISSYLNWYQQKPGKAPNLLIYAASSLQSGVPSRFSGSGSETDFTLTISSLQPEDFATYYCQQSHSVSFTFGPGTKVDIK
modifications: human IgG4-PE constant regions; 02D10 - VH Amino Acid Sequence; 02D10 - VL Amino Acid Sequence
Peak peripheral blood donor chimerism ([1]; 2D10 IgG4PE Rhesus GvHD Study): 88% and 99% (2×) and 100%
Whole Blood Chimerism (%) Day 0 ([1]; Day 0): 0%
Whole Blood Chimerism (%) Day 1 ([1]; Day 1): 16.6% and 5.7% and 22.9%
Whole Blood Chimerism (%) Day 4 ([1]; Day 4): 6.6%
Whole Blood Chimerism (%) Day 5 ([1]; Day 5): 91.4% and 66.3% and 31.7% and 68.2%
Whole Blood Chimerism (%) Day 7 ([1]; Day 7): 27.5%
Whole Blood Chimerism (%) Day 8 ([1]; Day 8): 98.4% and 97.4% and 66.3% and 82.9%
Whole Blood Chimerism (%) Day 11 ([1]; Day 11): 90.4%
Whole Blood Chimerism (%) Day 12 ([1]; Day 12): 98.6% and 99.5% and 82.3% and 92.1%
Whole Blood Chimerism (%) Day 14 ([1]; Day 14): 81.8%
Whole Blood Chimerism (%) Day 15 ([1]; Day 15): 99.1% and 99.4% and 88.2% and 97.5%
Whole Blood Chimerism (%) Day 16 ([1]; Day 16): 79.8%
Whole Blood Chimerism (%) Day 18 ([1]; Day 18): 19.7%
Whole Blood Chimerism (%) Day 20 ([1]; Day 20): 99.2% and 98.4%
Whole Blood Chimerism (%) Day 21 ([1]; Day 21): 0%
Whole Blood Chimerism (%) Day 23 ([1]; Day 23): 98.6% and 98.8%
Whole Blood Chimerism (%) Day 26 ([1]; Day 26): 98.7%
Apparent Affinity RhsOX40L (nM) (Rhesus monkey OX40L): CNROR
evidence of CMV or rhLCV infection [2]: No evidence of CMV or rhLCV infection and No (3×) and followed by autologous repopulation concurrent with evidence of CMV and rhLCV
